Assays:
[1] = biological target: human CD28 on cells (human) (UniProt P10747); test: flow cytometry on human CD2+/CD8+ T cells, Alexa647 read-out
[2] = biological target: cynomolgus CD28 on cynomolgus T cells (cynomolgus) (UniProt Q0PDN3); test: flow cytometry on cynomolgus CD2+/CD4+ T cells, Alexa647 read-out
[3] = biological target: human CD28 on cells (human) (UniProt P10747); test: flow cytometry on human CD2+/CD4+ T cells, Alexa647 read-out
[4] = biological target: cynomolgus CD28 on cynomolgus T cells (cynomolgus) (UniProt Q0PDN3); test: flow cytometry on cynomolgus CD2+/CD8+ T cells, Alexa647 read-out

Measured: EC50 (read off the curve)

REGN5705 (antibody)
0.05 nM: all assays above

— US20230322927A1
